Ends that are not written are not given here.
How the values were obtained:
[1] = biological target: T1, recombinant human NRP1 (R&D), purified (human, UniProt O14786-2 22-644, limits assumed); assay: phage binding to NRP1-coated microtiter wells, plaque titration (FIG. 2)
T1 construct: Bought protein; also called purified NRP1; immobilized NRP1
T1 sequence (looked up): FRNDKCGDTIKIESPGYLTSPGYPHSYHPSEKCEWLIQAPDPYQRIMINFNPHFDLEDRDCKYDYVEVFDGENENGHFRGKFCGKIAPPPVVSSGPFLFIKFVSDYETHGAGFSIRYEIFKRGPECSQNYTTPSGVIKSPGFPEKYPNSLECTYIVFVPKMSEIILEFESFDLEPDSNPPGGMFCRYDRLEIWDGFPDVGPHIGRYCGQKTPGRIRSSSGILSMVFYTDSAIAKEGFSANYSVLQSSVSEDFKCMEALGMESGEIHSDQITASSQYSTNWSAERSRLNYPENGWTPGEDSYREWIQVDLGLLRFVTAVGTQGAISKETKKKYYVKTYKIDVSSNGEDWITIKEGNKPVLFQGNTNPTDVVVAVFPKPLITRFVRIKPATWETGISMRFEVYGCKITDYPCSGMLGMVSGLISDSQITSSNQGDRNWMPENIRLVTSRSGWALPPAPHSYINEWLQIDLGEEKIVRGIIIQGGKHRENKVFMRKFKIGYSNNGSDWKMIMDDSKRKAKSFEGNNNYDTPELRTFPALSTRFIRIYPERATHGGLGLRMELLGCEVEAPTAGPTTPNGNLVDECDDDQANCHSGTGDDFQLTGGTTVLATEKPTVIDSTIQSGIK
Description: (§1) Microtiter wells (Costar) were coated with 5 μg/mL of purified NRP1 or NRP2, blocked with PBS supplemented with 0.5% BSA and incubated with 10⁸ plaque-forming units (pfu) of phage in 100 μL of PBS/0.05% Tween 20 for 20 h at 37° C. After six washes in PBS/0.05% Tween 20, bound phage was eluted with 200 μL of 1 M Tris-HCl (pH 7.5)/0.5% SDS for 30 min and quantified by a plaque assay (titration).

[2] = biological target: T2, recombinant human NRP2 Fc chimera (R&D), purified (human, UniProt O60462 23-864); assay: phage binding to NRP2-coated microtiter wells, plaque titration (FIG. 3A)
T2 construct: Bought Fc chimera; also called purified NRP2; neuropilin-2; Fc part of the bought chimera not given; not described
T2 sequence (looked up): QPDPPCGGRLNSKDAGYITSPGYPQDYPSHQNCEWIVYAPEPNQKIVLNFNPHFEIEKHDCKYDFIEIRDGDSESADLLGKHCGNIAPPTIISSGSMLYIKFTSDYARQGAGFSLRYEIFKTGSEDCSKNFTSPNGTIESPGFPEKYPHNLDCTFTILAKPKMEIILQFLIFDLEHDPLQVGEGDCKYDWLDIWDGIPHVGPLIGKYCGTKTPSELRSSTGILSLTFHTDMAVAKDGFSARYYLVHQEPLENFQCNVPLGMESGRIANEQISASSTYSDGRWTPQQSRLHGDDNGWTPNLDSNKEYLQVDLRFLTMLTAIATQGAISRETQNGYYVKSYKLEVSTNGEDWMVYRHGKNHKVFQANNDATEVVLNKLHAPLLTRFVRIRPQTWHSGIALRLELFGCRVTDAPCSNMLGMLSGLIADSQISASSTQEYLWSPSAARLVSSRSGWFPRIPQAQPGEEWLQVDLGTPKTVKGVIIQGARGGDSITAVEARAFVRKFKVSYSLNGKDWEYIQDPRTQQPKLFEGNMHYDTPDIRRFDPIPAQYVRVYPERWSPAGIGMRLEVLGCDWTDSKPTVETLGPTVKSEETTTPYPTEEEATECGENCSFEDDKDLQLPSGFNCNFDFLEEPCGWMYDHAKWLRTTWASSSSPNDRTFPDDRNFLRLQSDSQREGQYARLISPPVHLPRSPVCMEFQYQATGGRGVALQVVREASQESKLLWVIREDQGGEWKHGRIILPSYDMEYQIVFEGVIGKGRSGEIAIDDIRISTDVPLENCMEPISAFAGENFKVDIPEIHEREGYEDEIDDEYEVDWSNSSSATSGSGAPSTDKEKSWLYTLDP
Description: B. MDA-MB-435 cells were incubated with phage at 4° C. to assess NRP2 binding. […] Binding is expressed as percentage of binding in control conditions. (mean±SEM; n=4/group; * p<0.05; **, p<0.01).
as §1

[3] = biological target: T3, NRP1 on human tumor cells (DU145 prostate carcinoma cells; PPC1 prostate tumor cells) (human, UniProt O14786 22-923); assay: 10^9 pfu phage on cultured PPC1 cells, anti-T7 staining, confocal microscopy
T3 construct: whole, on cells; DU145 express NRP1 but not NRP2; PPC1 express very high NRP1 and low NRP2; also called neuropilin-1; CendR receptor
Description: Phage were detected by staining with anti-T7 phage polyclonal antibody. Nuclei were stained with DAPI. […] Cells were co-stained for NRP1 and nuclei were stained with DAPI. […] Non-conjugated neutravidin was used as a control. Nuclei were stained with DAPI. Cells were analyzed by confocal microscopy.

[4] = biological target: T3, NRP1 on human tumor cells (DU145 …); assay: phage binding to DU145 cells at 4 C with or without anti-NRP1 (FIG. 1B)
[5] = biological target: T4, p32 in 4T1 breast tumor extracts (mouse, UniProt O35658 71-278); assay: affinity chromatography of 4T1 tumor extracts on immobilized tLyP-1
T4 construct: Endogenous protein from tumor extract
T4 sequence (looked up): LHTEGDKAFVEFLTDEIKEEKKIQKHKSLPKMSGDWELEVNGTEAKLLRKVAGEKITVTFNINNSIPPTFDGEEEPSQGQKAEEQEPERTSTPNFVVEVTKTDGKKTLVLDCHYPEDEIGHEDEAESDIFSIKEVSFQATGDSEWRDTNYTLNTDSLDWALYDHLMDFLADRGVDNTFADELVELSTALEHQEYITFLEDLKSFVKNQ

B1: LyP-1 phage (T7 phage displaying full-length LyP-1, CGNKRTRGC) (peptide)
peptide: CGNKRTRGC
modifications: also: cyclic nonapeptide, ring not given here, displayed on T7 phage
notes: LyP-1 is described as a cyclic nonapeptide; also called intact LyP-1
B1 was tested, and the “binding as fold over control (insertless) phage” value (shortened to “binding as fold over control”) [1] was 1.6 fold, the binding result [1] was “no binding” and the “binding as fold over control” value [2] was 0.6 fold. B1: no binding [2]; no binding [3].

CGNK [CGNK phage (truncated LyP-1, amino acids 1-4 of SEQ ID NO:10)]: no binding [4].

For CGNKRTR (also called CGNKRTR phage; phage tLyP-1) [tLyP-1 phage (T7 phage displaying CGNKRTR, truncated LyP-1)], the “binding as fold over control” value [1] was 119 fold, the “binding as fold over insertless control phage” value [1] was about 120 fold and the “binding as fold over control” value [2] was 8 fold.

RPARPAR [RPARPAR phage (T7 phage displaying the prototypic CendR peptide RPARPAR)] was tested, and the “binding as fold over control” value [1] was 276 fold, the “binding ratio over the control phage” value [1] was 280 fold and the “binding as fold over control” value [2] was 29 fold.

CGNKR [CGNKR phage (truncated LyP-1, amino acids 1-5 of SEQ ID NO:10)]: no binding [4].

CGNKRTR (the coupling is not described) [tLyP-1 affinity matrix (immobilized tLyP-1 peptide)]: no binding [5].
